Sequences and labels used below:
B1: GLS3000 K50Y (antibody, name in Kabat numbering, V domains shown)
VH: QVQLVESGGGVVQPGRSLRLSCAASGFTFSNAWMHWVRQAPGKGLEWVAQIKAKSNNYATYYAESVKGRFTISRDDSKNSLYLQMNSLKTEDTAVYYCRYVHYGAYYGVDAWGQGTTVTVSS
VL: DIVMTQSPLSLPVTPGEPASISCRSSQSLVHSNRNTYLHWYQQKPGQAPRLLIYYVSNRFSGVPDRFSGSGSGTDFTLKISRVEAEDVGVYYCGQGTQVPYTFGQGTKLEIK
notes: one-arm IgG as m2
B2: GLS3000 N28T (antibody, name in Kabat numbering, V domains shown)
VH: B1 VH
VL: B1 VL with N33T, Y55K
notes: one-arm IgG as m2
B3: GLS3000 N28A (antibody, name in Kabat numbering, V domains shown)
VH: B1 VH
VL: B1 VL with N33A, Y55K
notes: one-arm IgG as m2
B4: GLS3000 N28H (antibody, name in Kabat numbering, V domains shown)
VH: B1 VH
VL: B1 VL with N33H, Y55K
notes: one-arm IgG as m2
B5: GLS3000 N30G (antibody, name in Kabat numbering, V domains shown)
VH: B1 VH
VL: B1 VL with N35G, Y55K
notes: one-arm IgG as m2
B6: GLS3000 N28S (antibody, name in Kabat numbering, V domains shown)
VH: B1 VH
VL: B1 VL with N33S, Y55K
notes: one-arm IgG as m2
B7: GLS3000 L33F (antibody, name in Kabat numbering, V domains shown)
VH: B1 VH
VL: B1 VL with L38F, Y55K
notes: one-arm IgG as m2
B8: GLS3000 L27bV (antibody, name in Kabat numbering, V domains shown)
VH: B1 VH
VL: B1 VL with L29V, Y55K
notes: one-arm IgG as m2
B9: GLS3000 N28M (antibody, name in Kabat numbering, V domains shown)
VH: B1 VH
VL: B1 VL with N33M, Y55K
notes: one-arm IgG as m2
B10: GLS3000 N28V (antibody, name in Kabat numbering, V domains shown)
VH: B1 VH
VL: B1 VL with N33V, Y55K
notes: one-arm IgG as m2
B11: GLS3000 L33D (antibody, name in Kabat numbering, V domains shown)
VH: B1 VH
VL: B1 VL with L38D, Y55K
notes: one-arm IgG as m2
B12: GLS3000 L33P (antibody, name in Kabat numbering, V domains shown)
VH: B1 VH
VL: B1 VL with L38P, Y55K
notes: one-arm IgG as m2
B13: GLS3000 L27bE (antibody, name in Kabat numbering, V domains shown)
VH: B1 VH
VL: B1 VL with L29E, Y55K
notes: one-arm IgG as m2
B14: GLS3000 N30D (antibody, name in Kabat numbering, V domains shown)
VH: B1 VH
VL: B1 VL with N35D, Y55K
notes: one-arm IgG as m2
B15: GLS3000 L27bY (antibody, name in Kabat numbering, V domains shown)
VH: B1 VH
VL: B1 VL with L29Y, Y55K
notes: one-arm IgG as m2
B16: GLS3000 N28P (antibody, name in Kabat numbering, V domains shown)
VH: B1 VH
VL: B1 VL with N33P, Y55K
notes: one-arm IgG as m2
B17: GLS3000 L27bI (antibody, name in Kabat numbering, V domains shown)
VH: B1 VH
VL: B1 VL with L29I, Y55K
notes: one-arm IgG as m2
B18: GLS3000 N28G (antibody, name in Kabat numbering, V domains shown)
VH: B1 VH
VL: B1 VL with N33G, Y55K
notes: one-arm IgG as m2
B19: GLS3000 N28W (antibody, name in Kabat numbering, V domains shown)
VH: B1 VH
VL: B1 VL with N33W, Y55K
notes: one-arm IgG as m2
B20: GLS3000 N28Y (antibody, name in Kabat numbering, V domains shown)
VH: B1 VH
VL: B1 VL with N33Y, Y55K
notes: one-arm IgG as m2
B21: GLS3000 L27bF (antibody, name in Kabat numbering, V domains shown)
VH: B1 VH
VL: B1 VL with L29F, Y55K
notes: one-arm IgG as m2
B22: GLS3000 N30A (antibody, name in Kabat numbering, V domains shown)
VH: B1 VH
VL: B1 VL with N35A, Y55K
notes: one-arm IgG as m2
B23: GLS3000 L33V (antibody, name in Kabat numbering, V domains shown)
VH: B1 VH
VL: B1 VL with L38V, Y55K
notes: one-arm IgG as m2
B24: GLS3000 N30E (antibody, name in Kabat numbering, V domains shown)
VH: B1 VH
VL: B1 VL with N35E, Y55K
notes: one-arm IgG as m2
B25: GLS3000 L33E (antibody, name in Kabat numbering, V domains shown)
VH: B1 VH
VL: B1 VL with L38E, Y55K
notes: one-arm IgG as m2
B26: GLS3000 N28Q (antibody, name in Kabat numbering, V domains shown)
VH: B1 VH
VL: B1 VL with N33Q, Y55K
notes: one-arm IgG as m2
B27: GLS3000 L33I (antibody, name in Kabat numbering, V domains shown)
VH: B1 VH
VL: B1 VL with L38I, Y55K
notes: one-arm IgG as m2
B28: GLS3000 K74T (antibody, name in Kabat numbering, V domains shown)
VH: B1 VH
VL: B1 VL with Y55K, K79T
notes: one-arm IgG as m2
B29: GLS3000 N28D (antibody, name in Kabat numbering, V domains shown)
VH: B1 VH
VL: B1 VL with N33D, Y55K
notes: one-arm IgG as m2
B30: GLS3000 N28K (antibody, name in Kabat numbering, V domains shown)
VH: B1 VH
VL: B1 VL with N33K, Y55K
notes: one-arm IgG as m2
B31: GLS3000 K107E (antibody, name in Kabat numbering, V domains shown)
VH: B1 VH
VL: B1 VL with Y55K, K112E
notes: one-arm IgG as m2
B32: GLS3000 L27bD (antibody, name in Kabat numbering, V domains shown)
VH: B1 VH
VL: B1 VL with L29D, Y55K
notes: one-arm IgG as m2
B33: GLS3000 N28F (antibody, name in Kabat numbering, V domains shown)
VH: B1 VH
VL: B1 VL with N33F, Y55K
notes: one-arm IgG as m2
B34: GLS3000 L33A (antibody, name in Kabat numbering, V domains shown)
VH: B1 VH
VL: B1 VL with L38A, Y55K
notes: one-arm IgG as m2
B35: GLS3000 L27bS (antibody, name in Kabat numbering, V domains shown)
VH: B1 VH
VL: B1 VL with L29S, Y55K
notes: one-arm IgG as m2
B36: GLS3000 N28L (antibody, name in Kabat numbering, V domains shown)
VH: B1 VH
VL: B1 VL with N33L, Y55K
notes: one-arm IgG as m2
B37: GLS3000 L33M (antibody, name in Kabat numbering, V domains shown)
VH: B1 VH
VL: B1 VL with L38M, Y55K
notes: one-arm IgG as m2
B38: GLS3000 N30F (antibody, name in Kabat numbering, V domains shown)
VH: B1 VH
VL: B1 VL with N35F, Y55K
notes: one-arm IgG as m2
B39: GLS3000 N28E (antibody, name in Kabat numbering, V domains shown)
VH: B1 VH
VL: B1 VL with N33E, Y55K
notes: one-arm IgG as m2
B40: GLS3000 L27bW (antibody, name in Kabat numbering, V domains shown)
VH: B1 VH
VL: B1 VL with L29W, Y55K
notes: one-arm IgG as m2
B41: GLS3000 L27bP (antibody, name in Kabat numbering, V domains shown)
VH: B1 VH
VL: B1 VL with L29P, Y55K
notes: one-arm IgG as m2
B42: GLS3000 L27bM (antibody, name in Kabat numbering, V domains shown)
VH: B1 VH
VL: B1 VL with L29M, Y55K
notes: one-arm IgG as m2
B43: GLS3000 N28I (antibody, name in Kabat numbering, V domains shown)
VH: B1 VH
VL: B1 VL with N33I, Y55K
notes: one-arm IgG as m2

Positions count from the first letter of the chain named.

The target in the experiment is T1, CD3 epsilon homodimer protein (UniProt P07766 23-126).
T1 construct: also called CD3 (CD3 epsilon)
T1 sequence (P07766 23-126): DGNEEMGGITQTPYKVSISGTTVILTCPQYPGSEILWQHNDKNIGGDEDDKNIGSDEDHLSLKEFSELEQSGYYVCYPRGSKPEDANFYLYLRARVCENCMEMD
Briefly: SPR Biacore T200, CD3e homodimer on chip, vs unaltered GLS3000 antibody. A general note: Surface plasmon resonance follows binding to a sensor surface in real time, without labels.
For the molecule B1, the “ratio of amounts bound (Z=Y/X)” value stood at 0.24.

Turning to B2, the “ratio of amounts bound (Z=Y/X)” value was 0.45.

Consider B3, for which the “ratio of amounts bound (Z=Y/X)” value was determined as 0.25.

For B4, the “ratio of amounts bound (Z=Y/X)” value worked out at 0.42.

Regarding B5, the “ratio of amounts bound (Z=Y/X)” value is 0.47.

In the case of B6, the “ratio of amounts bound (Z=Y/X)” value was found to be 0.32.

In the case of B7, the “ratio of amounts bound (Z=Y/X)” value was 0.78.

As for B8, the “ratio of amounts bound (Z=Y/X)” value is 1.12.

Regarding B9, the “ratio of amounts bound (Z=Y/X)” value came to 0.39.

On to B10, for which the “ratio of amounts bound (Z=Y/X)” value came to 0.36.

Consider B11, for which the “ratio of amounts bound (Z=Y/X)” value is 0.17.

For the molecule B12, the “ratio of amounts bound (Z=Y/X)” value came to 0.3.

Turning to B13, the “ratio of amounts bound (Z=Y/X)” value was found to be 0.17.

As for B14, the “ratio of amounts bound (Z=Y/X)” value came to 0.34.

Turning to B15, the “ratio of amounts bound (Z=Y/X)” value was determined as 0.25.

As for B16, the “ratio of amounts bound (Z=Y/X)” value worked out at 0.36.

Regarding B17, the “ratio of amounts bound (Z=Y/X)” value came out at 1.19.

As for B18, the “ratio of amounts bound (Z=Y/X)” value was found to be 0.46.

For the molecule B19, the “ratio of amounts bound (Z=Y/X)” value was found to be 0.41.

For B20, the “ratio of amounts bound (Z=Y/X)” value was 0.26.

In the case of B21, the “ratio of amounts bound (Z=Y/X)” value is 0.42.

As to B22, the “ratio of amounts bound (Z=Y/X)” value is 0.5.

Regarding B23, the “ratio of amounts bound (Z=Y/X)” value amounted to 1.05.

Take B24: the “ratio of amounts bound (Z=Y/X)” value is 0.44.

In the case of B25, the “ratio of amounts bound (Z=Y/X)” value was found to be 0.72.

As to B26, the “ratio of amounts bound (Z=Y/X)” value turned out to be 0.37.

On to B27, for which the “ratio of amounts bound (Z=Y/X)” value worked out at 0.83.

As to B28, the “ratio of amounts bound (Z=Y/X)” value was found to be 0.84.

In the case of B29, the “ratio of amounts bound (Z=Y/X)” value is 0.19.

With B30, the “ratio of amounts bound (Z=Y/X)” value was found to be 0.44.

With B31, the “ratio of amounts bound (Z=Y/X)” value was determined as 0.94.

For B32, the “ratio of amounts bound (Z=Y/X)” value was found to be 0.17.

Consider B33, for which the “ratio of amounts bound (Z=Y/X)” value came out at 0.46.

For the molecule B34, the “ratio of amounts bound (Z=Y/X)” value turned out to be 0.85.

With B35, the “ratio of amounts bound (Z=Y/X)” value was determined as 0.71.

Regarding B36, the “ratio of amounts bound (Z=Y/X)” value came to 0.39.

Regarding B37, the “ratio of amounts bound (Z=Y/X)” value is 0.93.

Take B38: the “ratio of amounts bound (Z=Y/X)” value is 1.1.

As to B39, the “ratio of amounts bound (Z=Y/X)” value was 0.4.

Consider B40, for which the “ratio of amounts bound (Z=Y/X)” value was 0.26.

Consider B41, for which the “ratio of amounts bound (Z=Y/X)” value is 0.91.

As for B42, the “ratio of amounts bound (Z=Y/X)” value was 0.71.

B43: the “ratio of amounts bound (Z=Y/X)” value worked out at 0.44.

For the origin of these results see patent US20210388087A1 (Chugai, published 2021).
